# B1: monoclonal antibody 4D1 (antibody, V domains shown)
# VH: QVQLQQPGAELVKPGASVNLSCKASGYTFTSYWMHWVKQRPGQGLEWIGEIDPSDSFTTYNQNFKDRATLTVDKSSSTAYMQLRSLTSEDSAVYYCARGGPGDFRYAMDYWGQGTSVTVSS
# VL: DILMTQSPSSMSVSLGDTVSITCHASQGISSNIGWLQQKPGKSFKGLIYHGTNLEDGVPSRFSGSGSGADYSLTISSLESEDFADYYCVQYVQFPYTFGGGTKLEIKR
# B2: monoclonal antibody 10F7 (antibody, V domains shown)
# VH: QVQLQQPGAELVKPGASVKLSCKASGYTFTSYWMHWVKQRPGQGLEWIGEIDPSDSYTNYNQKFKGKATLTVDKSSSTAYMQLSSLTSEDSAVYYCARGGTGDFHYAMDYWGQGTSVTVSS
# VL: DILMTQSPSSMSVSLGDTVSITCHASQGISSNIGWLQQKPGKSFKGLIYHGTNLEDGVPSRFSGSGSGADYSLTISSLESEDFADYYCVQYVQFPYTFGGGTKLEIKR
# B3: monoclonal antibody 8H5 (antibody, V domains shown)
# VH: QVQLQQSGAELMKPGASVKISCKATGYTFSNYWIEWIKQRPGHGLEWIGEILPGSDRTNYNGKFKGKATFTADTSSNTAHMQLSSLTSEDSAVYYCANRYDGYYFGLDYWGQGTSVAVSS
# VL: EIVLTQSPAIMSASLGEKVTMSCRASSSVNFVYWYQQRSDASPKLLIYYSSNLAPGVPPRFSGSGSGNSYSLTISGLEGEDAATYYCQHFTSSPYTFGGGTNLEIKR
# B4: monoclonal antibody 3C8 (antibody, V domains shown)
# VH: QIQLVQSGPELKKPGETVKISCKASGYSFTNYGMNWVKQAPGKGLKWMGWINTYTGEPAYADDFKGRFAFSLETSASTAYLQINNLKNEDTATYFCARWNRDAMDYWGQGTSVTVSS
# VL: DIVLTQSPASLAVSLGQRATISCRASESVDSSDNSLMHWYQQKPGQPPKLLIYRASNLESGIPARFSGSGSRTDFTLTINPVEADDVATYYCQQSIGDPPYTFGGGTKLEIKR
# What was measured:
# Test in all cases: cell-based or functional assay
# [1] = target: H5 virus strains (thirty-four strains of H5N1 viruses)
# [2] = target: HA of H5N1 virus strain GD1 (avian influenza virus H5N1)
# [3] = target: HA of H5N1 virus strain GD2 (avian influenza virus H5N1)
# [4] = target: HA of H5N1 virus strain GD3 (avian influenza virus H5N1)
# [5] = target: HA of H5N1 virus strain HN1 (avian influenza virus H5N1)
# [6] = target: HA of H5N1 virus strain HN2 (avian influenza virus H5N1)
# [7] = target: HA of H5N1 virus strain IDN1.1 (avian influenza virus H5N1)
# [8] = target: HA of H5N1 virus strain IDN2 (avian influenza virus H5N1)
# [9] = target: HA of H5N1 virus strain IDN3 (avian influenza virus H5N1)
# [10] = target: HA of H5N1 virus strain IDN4 (avian influenza virus H5N1)
# [11] = target: HA of H5N1 virus strain IDN5 (avian influenza virus H5N1)
# [12] = target: HA of H5N1 virus strain MB1 (avian influenza virus H5N1)
# [13] = target: HA of H5N1 virus strain MB2 (avian influenza virus H5N1)
# [14] = target: HA of H5N1 virus strain MIX1 (avian influenza virus H5N1)
# [15] = target: HA of H5N1 virus strain MIX2 (avian influenza virus H5N1)
# [16] = target: HA of H5N1 virus strain MIX3 (avian influenza virus H5N1)
# [17] = target: HA of H5N1 virus strain VNM2.1 (avian influenza virus H5N1)
# [18] = target: HA of H5N1 virus strain VTM1.1 (avian influenza virus H5N1)
# [19] = target: HA of H5N1 virus strain VTM2 (avian influenza virus H5N1)
# [20] = target: HA of H5N1 virus strain VTM3 (avian influenza virus H5N1)
# [21] = target: HA of H5N1 virus strain VTM4 (avian influenza virus H5N1)
# [22] = target: HA of H5N1 virus strain YN1 (avian influenza virus H5N1)
# [23] = target: non-H5 viruses (14 strains; H1~H13, Chicken NDV)
binder,measurement,setting,value
B1,HI assay: positive number/total virus number (of 34 strains),[1],34
same,HI titer,[2],12800 titer
same,Neutralization titer,[2],12800 titer
same,HI titer,[3],800 titer
same,Neutralization titer,[3],12800 titer
same,HI titer,[4],12800 titer
same,Neutralization titer,[4],12800 titer
same,HI titer,[5],12800 titer
same,Neutralization titer,[5],12800 titer
same,HI titer,[6],3200 titer
same,Neutralization titer,[6],12800 titer
same,HI titer,[7],12800 titer
same,Neutralization titer,[7],12800 titer
same,HI titer,[8],800 titer
same,Neutralization titer,[8],12800 titer
same,HI titer,[9],6400 titer
same,Neutralization titer,[9],12800 titer
same,HI titer,[10],12800 titer
same,Neutralization titer,[10],12800 titer
same,HI titer,[11],12800 titer
same,Neutralization titer,[11],12800 titer
same,HI titer,[12],3200 titer
same,Neutralization titer,[12],6400 titer
same,HI titer,[13],6400 titer
same,Neutralization titer,[13],12800 titer
same,HI titer,[14],12800 titer
same,Neutralization titer,[14],12800 titer
same,HI titer,[15],12800 titer
same,Neutralization titer,[15],12800 titer
same,HI titer,[16],12800 titer
same,Neutralization titer,[16],12800 titer
same,HI titer,[17],400 titer
same,Neutralization titer,[17],1600 titer
same,HI titer,[18],3200 titer
same,Neutralization titer,[18],1600 titer
same,HI titer,[19],3200 titer
same,Neutralization titer,[19],3200 titer
same,HI titer,[20],12800 titer
same,Neutralization titer,[20],12800 titer
same,HI titer,[21],400 titer
same,Neutralization titer,[21],1600 titer
same,HI titer,[22],6400 titer
same,Neutralization titer,[22],12800 titer
same,HI assay: positive number/total virus number (of 14 strains),[23],0
B2,HI assay: positive number/total virus number (of 34 strains),[1],34
same,HI titer,[2],6400 titer
same,Neutralization titer,[2],12800 titer
same,HI titer,[3],12800 titer
same,Neutralization titer,[3],12800 titer
same,HI titer,[4],12800 titer
same,Neutralization titer,[4],12800 titer
same,HI titer,[5],12800 titer
same,Neutralization titer,[5],12800 titer
same,HI titer,[6],1600 titer
same,Neutralization titer,[6],12800 titer
same,HI titer,[7],12800 titer
same,Neutralization titer,[7],12800 titer
same,HI titer,[8],1600 titer
same,Neutralization titer,[8],12800 titer
same,HI titer,[9],1600 titer
same,Neutralization titer,[9],12800 titer
same,HI titer,[10],12800 titer
same,Neutralization titer,[10],12800 titer
same,HI titer,[11],6400 titer
same,Neutralization titer,[11],12800 titer
same,HI titer,[12],6400 titer
same,Neutralization titer,[12],12800 titer
same,HI titer,[13],12800 titer
same,Neutralization titer,[13],12800 titer
same,HI titer,[14],12800 titer
same,Neutralization titer,[14],12800 titer
same,HI titer,[15],12800 titer
same,Neutralization titer,[15],12800 titer
same,HI titer,[16],12800 titer
same,Neutralization titer,[16],12800 titer
same,HI titer,[17],3200 titer
same,Neutralization titer,[17],200 titer
same,HI titer,[18],3200 titer
same,Neutralization titer,[18],3200 titer
same,HI titer,[19],1600 titer
same,Neutralization titer,[19],3200 titer
same,HI titer,[20],12800 titer
same,Neutralization titer,[20],12800 titer
same,HI titer,[21],400 titer
same,Neutralization titer,[21],200 titer
same,HI titer,[22],3200 titer
same,Neutralization titer,[22],12800 titer
same,HI assay: positive number/total virus number (of 14 strains),[23],0
B3,HI assay: positive number/total virus number (of 14 strains),[23],0
B4,HI assay: positive number/total virus number (of 34 strains),[1],32
same,HI titer,[2],6400 titer
same,Neutralization titer,[2],12800 titer
same,HI titer,[3],12800 titer
same,Neutralization titer,[3],12800 titer
same,HI titer,[4],3200 titer
same,Neutralization titer,[4],200 titer
same,HI titer,[5],3200 titer
same,Neutralization titer,[5],12800 titer
same,HI titer,[6],800 titer
same,Neutralization titer,[6],6400 titer
same,HI titer,[7],3200 titer
same,Neutralization titer,[7],6400 titer
same,HI titer,[8],400 titer
same,Neutralization titer,[8],12800 titer
same,HI titer,[9],< 100 titer
same,HI titer,[10],6400 titer
same,Neutralization titer,[10],12800 titer
same,HI titer,[11],6400 titer
same,Neutralization titer,[11],6400 titer
same,HI titer,[12],400 titer
same,HI titer,[13],3200 titer
same,Neutralization titer,[13],12800 titer
same,HI titer,[14],1600 titer
same,Neutralization titer,[14],100 titer
same,HI titer,[15],800 titer
same,Neutralization titer,[15],< 100 titer
same,HI titer,[16],400 titer
same,Neutralization titer,[16],200 titer
same,HI titer,[17],< 100 titer
same,Neutralization titer,[17],< 100 titer
same,HI titer,[18],3200 titer
same,Neutralization titer,[18],1600 titer
same,HI titer,[19],1600 titer
same,Neutralization titer,[19],6400 titer
same,HI titer,[20],6400 titer
same,Neutralization titer,[20],12800 titer
same,HI titer,[21],800 titer
same,Neutralization titer,[21],12800 titer
same,HI titer,[22],1600 titer
same,HI assay: positive number/total virus number (of 14 strains),[23],0

# Source: patent publication US20090068637A1
